Experimental findings from patent publication EP1724347A2 are described below.

Test [1] deals with protein kinase A. Description: method not stated.
Test [2] has as its target protein kinase A. As to the kind of experiment: cell-based or functional assay.
Another test deals with GST-KIX. Description: fluorescence polarization.
Test [3] addresses GST-hDM2 (residues 1-188) (human) (UniProt Q00987). As to the kind of experiment: fluorescence polarization, competition format. A general note: In fluorescence polarisation assays a small probe gives low polarisation when free and higher when bound to something large.
Test [4] has the same target. As to the kind of experiment: fluorescence polarization, 25 nM labeled peptide with varying GST-hDM2, 4°C.
Test [5] shares this target. Description: 400 nM GST-hDM2 and 10 nM p53AD-Flu in the absence of pZutshi.

GST-hDM2 (residues 1-188) (human), sequence (Q00987 1-188): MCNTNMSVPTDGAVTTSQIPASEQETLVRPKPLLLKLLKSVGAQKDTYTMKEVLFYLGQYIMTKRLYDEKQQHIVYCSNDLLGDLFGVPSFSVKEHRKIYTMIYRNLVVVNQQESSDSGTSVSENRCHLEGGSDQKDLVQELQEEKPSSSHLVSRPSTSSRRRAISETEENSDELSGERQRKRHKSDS
GST-KIX, sequence (P45481 586-665): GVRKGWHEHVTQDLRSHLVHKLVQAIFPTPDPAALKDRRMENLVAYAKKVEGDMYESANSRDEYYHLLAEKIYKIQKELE

One may read the Kd as the free concentration of one partner at which half of the binding sites on the other are occupied at equilibrium, for simple one-to-one binding. A lower Kd goes with higher affinity. In turn, PKI (peptide) had a Kd with protein kinase A [1] of 0.0312 µM. In the test with protein kinase A [2], this substance yielded an IC50 (inhibition of PKA) of 0.008 µM.

As for Phosphorylated KID31 (peptide), the Kd in the test with GST-KIX came to 1.2 µM.

“p53AD peptide (residues 15-33), not labeled”: the Kd in test [3] amounted to 1200 µM. This lies in the millimolar range. With p53AD-Flu (peptide), the dissociation constant Kd in test [4] worked out at 0.261 µM. This substance registered a percent bound in test [5] of 60%. Phosphorylated KID20 (peptide): in the test with GST-KIX, the Kd came out at 48 µM.
